Source: article PMC7611867
Like-named read-outs stand apart in the source and are kept apart here.

B1: 32 bp (dsDNA)
DNA 1: TAGCAATGTAATCGTCTATGACGTGATAGCGC
DNA 2: TAGCGCTATCACGTCATAGACGATTACATTGC
B2: 34 bp (dsDNA)
DNA 1: TAGCAATGTAATCGTCTATGACGTGTCATAGCGC
DNA 2: TAGCGCTATGACACGTCATAGACGATTACATTGC
B3: 33 bp (dsDNA)
DNA 1: TAGCAATGTAATCGTCTATGACGTGCATAGCGC
DNA 2: TAGCGCTATGCACGTCATAGACGATTACATTGC
B4: 24 bp (dsDNA)
DNA 1: TAGCAATGTAATCGTCTATGACGT
DNA 2: TAACGTCATAGACGATTACATTGC
B5: 31 bp (dsDNA)
DNA 1: TAGCAATGTAATCGTCTATGACGTGTAGCGC
DNA 2: TAGCGCTACACGTCATAGACGATTACATTGC
B6: 30 bp (dsDNA)
DNA 1: TAGCAATGTAATCGTCTATGACGTTAGCGC
DNA 2: TAGCGCTAACGTCATAGACGATTACATTGC
B7: 25 bp (dsDNA)
DNA 1: TAGCAATGTAATCGTCTATGACGTT
DNA 2: TAAACGTCATAGACGATTACATTGC

Key:
Spo11;Rec102;Rec104;Ski8 [1] = target: T1, Spo11;Rec102;Rec104;Ski8 (Saccharomyces cerevisiae;Saccharomyces …, UniProt P23179;Q02721;P33323;Q02793 1-398;1-264;1-182;1-397, |||); assay: EMSA
Spo11;Rec102;Rec104;Ski8 [2] = target: T1, Spo11;Rec102;Rec104;Ski8; assay: EMSA; remark: listed apart in the source

T1 sequence (P23179 whole entry, chain 1 of 4): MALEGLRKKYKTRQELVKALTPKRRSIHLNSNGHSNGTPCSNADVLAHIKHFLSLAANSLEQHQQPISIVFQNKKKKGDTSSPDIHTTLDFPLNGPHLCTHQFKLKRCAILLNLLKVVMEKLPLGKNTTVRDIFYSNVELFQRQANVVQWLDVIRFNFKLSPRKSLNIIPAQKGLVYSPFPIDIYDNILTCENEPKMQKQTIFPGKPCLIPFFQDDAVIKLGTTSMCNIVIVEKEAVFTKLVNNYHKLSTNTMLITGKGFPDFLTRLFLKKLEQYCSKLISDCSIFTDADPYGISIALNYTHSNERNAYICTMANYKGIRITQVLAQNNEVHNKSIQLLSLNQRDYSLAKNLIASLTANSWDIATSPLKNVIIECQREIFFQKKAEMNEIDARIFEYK
T1 sequence (Q02721 whole entry, chain 2 of 4): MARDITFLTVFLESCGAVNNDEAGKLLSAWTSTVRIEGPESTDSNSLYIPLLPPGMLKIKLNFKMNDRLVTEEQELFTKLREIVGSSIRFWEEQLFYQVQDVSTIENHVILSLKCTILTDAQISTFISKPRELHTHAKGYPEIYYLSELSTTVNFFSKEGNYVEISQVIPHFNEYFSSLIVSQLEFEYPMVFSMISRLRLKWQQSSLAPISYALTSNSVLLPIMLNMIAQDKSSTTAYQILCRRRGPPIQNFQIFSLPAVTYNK
T1 sequence (P33323 whole entry, chain 3 of 4): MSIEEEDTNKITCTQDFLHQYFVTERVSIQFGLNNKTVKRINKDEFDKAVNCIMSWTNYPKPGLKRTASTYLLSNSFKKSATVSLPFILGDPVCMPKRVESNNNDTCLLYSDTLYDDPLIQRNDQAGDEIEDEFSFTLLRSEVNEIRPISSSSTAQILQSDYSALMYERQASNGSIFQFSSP
T1 sequence (Q02793 whole entry, chain 4 of 4): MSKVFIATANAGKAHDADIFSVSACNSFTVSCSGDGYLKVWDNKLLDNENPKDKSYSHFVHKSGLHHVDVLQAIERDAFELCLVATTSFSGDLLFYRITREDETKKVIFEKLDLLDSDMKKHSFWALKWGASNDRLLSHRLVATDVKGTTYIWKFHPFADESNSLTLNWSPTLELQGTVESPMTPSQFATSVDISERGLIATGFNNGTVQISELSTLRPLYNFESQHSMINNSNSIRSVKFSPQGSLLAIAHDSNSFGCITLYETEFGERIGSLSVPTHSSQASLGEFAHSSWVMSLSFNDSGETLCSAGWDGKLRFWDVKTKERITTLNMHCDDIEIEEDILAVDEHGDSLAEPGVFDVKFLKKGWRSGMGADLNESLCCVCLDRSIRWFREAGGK

Row | Binder | binding result (Spo11;Rec102;Rec104;Ski8 [1]) | binding result (Spo11;Rec102;Rec104;Ski8 [2])
1 | B1 | binds | 
2 | B2 |  | binds
3 | B3 | binds | 
4 | B4 | binds | 
5 | B5 | binds | 
6 | B6 | binds | 
7 | B7 | binds | 
